Substrate in the data set: O=C[C@H](O)COP(=O)(O)O
The data set can be described thus: purified protein. The format is biochemical, Cryptosporidium parvum. Particulars: 150 μM NAD, 50 mM triethanolamine, 50 mM Na2HPO4, 0.2 mM EDTA, pH 8.8, D-G3H 1.47-5.88 mM supplied as DL-G3H.

Our source for the Km values is article PMC2662861, “An unexpected phosphate binding site in Glyceraldehyde 3-Phosphate Dehydrogenase: Crystal structures of apo, holo and ternary complex of Cryptosporidium parvum enzyme” (BMC Structural Biology, 2009).

One may read the Km as the concentration of substrate that gives half-maximal velocity.

B1: CpGAPDH (Cryptosporidium parvum glyceraldehyde 3-phosphate dehydrogenase) (Cryptosporidium parvum) (protein)
chain: MTATLGINGFGRIGRLVLRACMERNDITVVAINDPFMDVEYMAYLLKYDSVHGNFNGTVEVSGKDLCINGKVVKVFQAKDPAEIPWGASGAQIVCESTGVFTTEEKASLHLKGGAKKVIISAPPKDNVPMYVMGVNNTEYDPSKFNVISNASCTTNCLAPLAKIINDKFGIVEGLMTTVHSLTANQLTVDGPSKGGKDWRAGRCAGNNIIPASTGAAKAVGKVIPALNGKLTGMAIRVPTPDVSVVDLTCKLAKPASIEEIYQAVKEASNGPMKGIMGYTSDDVVSTDFIGCKYSSIFDKNACIALNDSFVKLISWYDNESGYSNRLVDLAVYVASRGL
notes: recombinant, N-terminal hexa-histidine tag kept, expressed in E. coli; homotetramer
Turning to B1, the Km was determined as 762.7 ± 43.0 µM.
